Assay results: US20140228546A1 (Ablynx, published 2014)

Experiments:
[1] = molecular target: T1, c-MET receptor on A549 cells (UniProt P08581 25-1390, limits assumed); assay: cell-based or functional assay
[2] = molecular target: T1, c-MET receptor on A549 cells; assay: cell-based or functional assay; remark: listed apart in the source
c-MET/Fc [3] = molecular target: T2, c-MET/Fc (UniProt P08581 25-932); assay: HGF/c-MET competition AlphaScreen; competitor: 100 pM biotinylated hHGF
T2 construct: also called c-MET receptor; not shown: Fc part, captured by anti-human Fc acceptor beads
T2 sequence (P08581 25-932 limits assumed): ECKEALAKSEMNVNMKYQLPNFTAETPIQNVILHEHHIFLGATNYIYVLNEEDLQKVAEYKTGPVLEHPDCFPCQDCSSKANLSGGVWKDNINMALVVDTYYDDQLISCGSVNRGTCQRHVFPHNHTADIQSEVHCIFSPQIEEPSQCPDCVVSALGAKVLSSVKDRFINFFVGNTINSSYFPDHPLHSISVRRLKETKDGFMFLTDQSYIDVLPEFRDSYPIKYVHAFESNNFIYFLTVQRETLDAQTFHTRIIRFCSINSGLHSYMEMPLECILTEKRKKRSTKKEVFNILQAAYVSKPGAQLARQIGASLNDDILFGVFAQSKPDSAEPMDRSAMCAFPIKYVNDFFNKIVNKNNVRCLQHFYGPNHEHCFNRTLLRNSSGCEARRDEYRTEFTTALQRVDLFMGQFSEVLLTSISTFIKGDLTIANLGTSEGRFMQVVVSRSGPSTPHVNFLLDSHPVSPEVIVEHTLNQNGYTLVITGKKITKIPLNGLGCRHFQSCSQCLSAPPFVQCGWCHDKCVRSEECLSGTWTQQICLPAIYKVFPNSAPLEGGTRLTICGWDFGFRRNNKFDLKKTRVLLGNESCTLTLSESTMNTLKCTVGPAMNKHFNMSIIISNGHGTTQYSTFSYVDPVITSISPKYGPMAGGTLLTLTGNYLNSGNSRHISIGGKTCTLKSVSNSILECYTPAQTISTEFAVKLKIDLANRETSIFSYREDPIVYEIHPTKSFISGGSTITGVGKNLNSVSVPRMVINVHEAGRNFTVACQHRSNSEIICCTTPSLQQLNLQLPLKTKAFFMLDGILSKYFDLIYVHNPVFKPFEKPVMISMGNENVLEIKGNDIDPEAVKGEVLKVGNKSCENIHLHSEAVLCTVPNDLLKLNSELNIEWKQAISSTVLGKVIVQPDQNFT

human serum albumin [4] = molecular target: T3, human serum albumin (human, UniProt P02768 25-609); assay: SPR, Biacore T100, albumin immobilized on CM5, 25 C, 1:1 model
T3 construct: also called Human SA; HSA
T3 sequence (P02768 25-609 limits assumed): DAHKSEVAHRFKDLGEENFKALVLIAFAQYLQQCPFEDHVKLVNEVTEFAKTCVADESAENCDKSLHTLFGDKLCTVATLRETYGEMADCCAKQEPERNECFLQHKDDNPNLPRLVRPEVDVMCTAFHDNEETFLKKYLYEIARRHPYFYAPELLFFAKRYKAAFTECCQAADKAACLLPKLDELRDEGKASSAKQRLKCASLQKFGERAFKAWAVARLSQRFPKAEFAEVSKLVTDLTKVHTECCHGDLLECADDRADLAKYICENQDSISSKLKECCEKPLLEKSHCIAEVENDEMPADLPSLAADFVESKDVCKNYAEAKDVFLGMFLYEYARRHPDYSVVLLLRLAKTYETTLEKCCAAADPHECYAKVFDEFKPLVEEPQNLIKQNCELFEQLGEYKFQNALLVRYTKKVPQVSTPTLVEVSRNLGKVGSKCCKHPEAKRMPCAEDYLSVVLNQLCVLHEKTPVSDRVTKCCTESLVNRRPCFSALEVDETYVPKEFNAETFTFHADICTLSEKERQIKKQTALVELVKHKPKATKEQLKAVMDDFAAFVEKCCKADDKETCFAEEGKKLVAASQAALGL
Procedure: (§1) HBS-EP+ buffer (0.01M HEPES buffer containing 0.15M NaCl, 3 mM EDTA and 0.05% Surfactant p20, pH7.4) was used as the running buffer and experiments were performed at 25° C. Serum albumin was chemically coupled on a Series S sensorchip chip CM5 with carboxymethylated dextran surface by a manual immobilization run at a flow rate of 5 μl/min. […] After immobilization, surfaces were deactivated with a 7 min injection of 1M ethanolamine pH8.5. A blank reference surface (flowcell 1) was activated and deactivated as described above. […] Between different samples, the surfaces were regenerated with regeneration buffer 10 mM glycine-HCl pH1.5, 100 s at 45 μl/min. Data were double referenced by subtraction of the curves on the reference channel and of a blank running buffer injection curve. Processed curves were evaluated by fitting a 1:1 binding model onto the binding curves in the Biacore T100 Evaluation software.

mouse serum albumin = molecular target: T4, mouse serum albumin (mouse, UniProt P07724 25-608); assay: as above
T4 construct: also called Murine SA
Procedure: as §1

cynomolgus serum albumin [5] = molecular target: T5, cynomolgus serum albumin (cynomolgus, UniProt A2V9Z4 25-608); assay: as above
T5 construct: also called Cyno SA
T5 sequence (A2V9Z4 25-608 limits assumed): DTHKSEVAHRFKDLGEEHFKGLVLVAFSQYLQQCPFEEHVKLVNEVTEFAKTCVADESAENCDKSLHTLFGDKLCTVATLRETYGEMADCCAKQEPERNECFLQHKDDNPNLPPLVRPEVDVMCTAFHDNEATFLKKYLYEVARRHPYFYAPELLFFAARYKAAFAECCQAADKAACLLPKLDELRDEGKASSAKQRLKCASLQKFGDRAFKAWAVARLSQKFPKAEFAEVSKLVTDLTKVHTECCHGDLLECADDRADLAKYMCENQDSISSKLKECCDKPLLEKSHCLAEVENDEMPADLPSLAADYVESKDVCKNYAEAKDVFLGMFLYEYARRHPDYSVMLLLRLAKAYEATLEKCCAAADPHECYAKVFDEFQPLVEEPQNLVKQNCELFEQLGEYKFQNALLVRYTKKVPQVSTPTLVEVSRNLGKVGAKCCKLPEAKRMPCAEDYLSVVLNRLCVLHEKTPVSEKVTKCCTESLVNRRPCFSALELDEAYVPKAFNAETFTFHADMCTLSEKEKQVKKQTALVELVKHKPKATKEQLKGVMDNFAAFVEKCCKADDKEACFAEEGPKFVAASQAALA
Procedure: as §1

c-MET/Fc [6] = molecular target: T2, c-MET/Fc; assay: HGF/c-MET competition AlphaScreen; competitor: 100 pM biotinylated hHGF; remark: listed apart in the source
Procedure: To this mixture the anti-human Fc conjugated acceptor beads and c-MET/Fc (100 μM final concentration) were added and incubated for 2 hours at RT. Next, streptavidin donor beads were added and the mixture was incubated for 1 additional hour. Fluorescence was measured by reading plates on the EnVision Multilabel Plate Reader using an excitation wavelength of 680 nm and an emission wavelength of 520 nm.

human serum albumin [7] = molecular target: T3, human serum albumin; assay: method not stated (Table 6 comparison)
cynomolgus serum albumin [8] = molecular target: T5, cynomolgus serum albumin; assay: method not stated (Table 6 comparison)

T1 sequence (P08581 25-1390 limits assumed): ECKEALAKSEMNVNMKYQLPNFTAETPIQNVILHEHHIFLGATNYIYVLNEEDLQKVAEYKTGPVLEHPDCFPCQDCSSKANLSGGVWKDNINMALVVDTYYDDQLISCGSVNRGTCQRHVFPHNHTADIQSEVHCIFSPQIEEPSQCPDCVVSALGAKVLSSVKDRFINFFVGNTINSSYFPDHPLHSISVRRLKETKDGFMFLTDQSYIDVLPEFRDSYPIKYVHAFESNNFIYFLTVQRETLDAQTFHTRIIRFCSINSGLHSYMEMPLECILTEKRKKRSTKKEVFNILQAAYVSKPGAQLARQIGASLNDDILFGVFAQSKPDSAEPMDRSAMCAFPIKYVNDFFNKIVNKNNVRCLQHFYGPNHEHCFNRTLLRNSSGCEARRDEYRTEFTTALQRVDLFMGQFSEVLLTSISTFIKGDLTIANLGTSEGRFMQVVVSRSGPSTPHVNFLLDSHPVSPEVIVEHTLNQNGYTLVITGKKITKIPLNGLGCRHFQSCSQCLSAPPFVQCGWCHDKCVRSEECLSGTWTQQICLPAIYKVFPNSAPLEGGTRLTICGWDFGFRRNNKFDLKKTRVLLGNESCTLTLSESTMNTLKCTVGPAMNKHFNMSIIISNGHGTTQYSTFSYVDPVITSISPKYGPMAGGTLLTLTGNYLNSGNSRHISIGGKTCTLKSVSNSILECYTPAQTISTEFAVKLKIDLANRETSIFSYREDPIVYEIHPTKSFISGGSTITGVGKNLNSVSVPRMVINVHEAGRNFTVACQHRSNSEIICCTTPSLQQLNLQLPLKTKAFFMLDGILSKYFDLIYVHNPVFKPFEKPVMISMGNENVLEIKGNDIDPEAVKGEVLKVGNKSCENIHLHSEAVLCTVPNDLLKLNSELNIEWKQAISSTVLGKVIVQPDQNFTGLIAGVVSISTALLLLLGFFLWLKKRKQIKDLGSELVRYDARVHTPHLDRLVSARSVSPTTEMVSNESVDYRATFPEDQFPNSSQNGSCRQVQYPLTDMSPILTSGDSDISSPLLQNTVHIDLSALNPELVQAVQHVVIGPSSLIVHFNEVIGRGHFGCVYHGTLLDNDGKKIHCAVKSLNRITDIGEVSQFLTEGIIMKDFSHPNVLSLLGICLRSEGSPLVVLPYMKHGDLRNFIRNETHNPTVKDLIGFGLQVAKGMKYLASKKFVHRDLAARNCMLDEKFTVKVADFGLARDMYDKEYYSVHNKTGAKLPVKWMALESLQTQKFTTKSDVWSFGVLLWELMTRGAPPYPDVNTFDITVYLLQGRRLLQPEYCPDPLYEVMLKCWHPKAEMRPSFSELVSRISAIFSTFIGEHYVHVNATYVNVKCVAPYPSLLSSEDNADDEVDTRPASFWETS

Row | Binder | IC50, HGF-dependent c-MET phosphorylation in A549 cells (MSD), +HSA [1] [nM] | IC50, HGF-dependent c-MET phosphorylation in A549 cells (MSD), -HSA [1] [nM] | fold improved potency vs 5D5 Fab v2, HGF-dependent c-MET phosphorylation in A549 cells [2] [fold] | fold improved potency vs 5D5 Fab v2 (c-MET/Fc [3]) [fold] | Kd (human serum albumin [4]) [nM] | koff (human serum albumin [4]) [s⁻¹] | kon (human serum albumin [4]) [M⁻¹ s⁻¹] | Kd (mouse serum albumin) [nM] | koff (mouse serum albumin) [s⁻¹] | kon (mouse serum albumin) [M⁻¹ s⁻¹] | Kd (cynomolgus serum albumin [5]) [nM] | koff (cynomolgus serum albumin [5]) [s⁻¹] | kon (cynomolgus serum albumin [5]) [M⁻¹ s⁻¹] | IC50 (c-MET/Fc [6]) [nM] | Kd (human serum albumin [7]) [nM] | Kd (cynomolgus serum albumin [8]) [nM]
1 | A007901219 (A00790105-9GS-Alb23) (bispecific antibody, Single polypeptide chain; also called A007901219 (Alb23)) DVQLVESGGGLVQPGGSLRLSCAASGFILDYYAIGWFRQAPGKEREGVLCIDASDDITYYADSVKGRFTISRDNSKNTVYLQMNSLRPEDTAVYYCATPIGLSSSCLLEYDYDYWGQGTLVTVSSGGGGSGGGSEVQLLESGGGLVQPGGSLRLSCAASGFTFRSFGMSWVRQAPGKGPEWVSSISGSGSDTLYADSVKGRFTISRDNSKNTLYLQMNSLRPEDTAVYYCTIGGSLSRSSQGTLVTVSS | 4.2 | 5.41 | ~2 | > 5 | 24 | 0.0033 | 130000 | 300 | 0.05 | 170000 | 27 | 0.0032 | 120000 | 0.066 |  | 
2 | Alb-23 (VHH, Monovalent anti-serum albumin Nanobody, a humanized version of Alb-1) VHH: EVQLLESGGGLVQPGGSLRLSCAASGFTFRSFGMSWVRQAPGKGPEWVSSISGSGSDTLYADSVKGRFTISRDNSKNTLYLQMNSLRPEDTAVYYCTIGGSLSRSSQGTLVTVSS |  |  |  |  | 2.6 |  |  |  |  |  | 2.7 |  |  |  | 2.7 | 3
